{"source": "paper PMC4749145", "about": "(Biochemistry, 2015)", "key": {"[1]": {"biological_target": "arylalkylamine N-acetyltransferase like 7 (AANATL7) (Drosophila melanogaster, UniProt Q9W4Y1, R138A)", "experiment": "intrinsic protein fluorescence quenching", "type": "binding"}, "[2]": {"biological_target": "T1, arylalkylamine N-acetyltransferase like 7 (AANATL7) (Drosophila melanogaster, UniProt Q9W4Y1)", "experiment": "intrinsic protein fluorescence quenching", "type": "binding"}, "[3]": {"biological_target": "T1, arylalkylamine N-acetyltransferase like 7 (AANATL7)", "experiment": "dead-end inhibition kinetics", "type": "biochemical"}, "purified protein": {"substrate": "CC(=O)SCCNC(=O)CCNC(=O)[C@H](O)C(C)(C)COP(=O)(O)OP(=O)(O)OC[C@H]1O[C@@H](n2cnc3c(N)ncnc32)[C@H](O)[C@@H]1OP(=O)(O)O", "experiment": "purified protein", "conditions": "binds first in ordered sequential mechanism; pH 8.0"}, "[4]": {"substrate": "NCCc1ccc(O)cc1", "experiment": "steady-state kinetics, Km,app", "type": "biochemical, Drosophila melanogaster", "conditions": "acetyl-CoA; pH 8.0"}, "[5]": {"substrate": "NCCc1c[nH]c2ccccc12", "experiment": "steady-state kinetics, Km,app", "type": "biochemical, Drosophila melanogaster", "conditions": "acetyl-CoA; pH 8.0"}, "[6]": {"substrate": "NCCc1c[nH]c2ccc(OCc3ccccc3)cc12", "experiment": "steady-state kinetics, Km,app", "type": "biochemical, Drosophila melanogaster", "conditions": "acetyl-CoA; pH 8.0"}, "[7]": {"substrate": "CCCC(=O)SCCNC(=O)CCNC(=O)[C@H](O)C(C)(C)COP(=O)(O)OP(=O)(O)OC[C@H]1O[C@@H](n2cnc3c(N)ncnc32)[C@H](O)[C@@H]1OP(=O)(O)O", "experiment": "steady-state kinetics, Km,app", "type": "biochemical, Drosophila melanogaster", "conditions": "pH 8.0"}}, "data": [{"molecule": "CC(C)(COP(=O)(O)OP(=O)(O)OC[C@H]1O[C@@H](n2cnc3c(N)ncnc32)[C@H](O)[C@@H]1OP(=O)(O)O)[C@@H](O)C(=O)NCCC(=O)NCCS", "note": "[coenzyme A]", "values": [{"measurement": "Kd", "setting": "[1]", "value": "1100 ± 200", "unit": "µM"}, {"measurement": "Kd", "setting": "[2]", "value": "530 ± 110", "unit": "µM"}]}, {"molecule": "CCCCCCCC/C=C\\CCCCCCCC(=O)SCCNC(=O)CCNC(=O)[C@H](O)C(C)(C)COP(=O)(O)OP(=O)(O)OC[C@H]1O[C@@H](n2cnc3c(N)ncnc32)[C@H](O)[C@@H]1OP(=O)(O)O", "note": "[oleoyl-CoA]", "values": [{"measurement": "Ki", "setting": "[3]", "value": "0.2 ± 0.01", "unit": "µM"}]}, {"molecule": "OCCc1ccc(O)cc1", "note": "[tyrosol]", "values": [{"measurement": "Ki", "setting": "[3]", "value": "430 ± 20", "unit": "µM"}]}, {"molecule": "arylalkylamine N-acetyltransferase like 7 (AANATL7) (Drosophila melanogaster) (protein) MEYKMIAPEHSEQVMEHLRRNFFADEPLNKAAGLCQNGSSCPALEAHCAEAIQHRMSVMAVDAKEKDTLKIVGVVLNGILKPGDTAKALSKLDCNDDADFRKIFDLLHRHNLKHNLFEHFDVDCMFDVRILSVDSCYRGQGIANELVKRSVAVAKKNGFRLLKADATGIFSQKIFRSHGFEVFSEQPYSKYTDENGKVILPVEAPHIKLQQLYKAICADDQDEKKQSL", "values": [{"measurement": "Km", "setting": "purified protein", "value": "29 ± 2", "unit": "µM"}, {"measurement": "kcat", "setting": "purified protein", "value": 32, "unit": "s⁻¹"}, {"measurement": "kcat/Km", "setting": "purified protein", "value": "1.1e+06", "unit": "M⁻¹ s⁻¹"}, {"measurement": "Km", "setting": "[4]", "value": "42 ± 2", "unit": "µM"}, {"measurement": "Km", "setting": "[5]", "value": "26 ± 2", "unit": "µM"}, {"measurement": "kcat", "setting": "[5]", "value": "16 ± 0.3", "unit": "s⁻¹"}, {"measurement": "kcat/Km", "setting": "[5]", "value": "600000 ± 40000", "unit": "M⁻¹ s⁻¹"}, {"measurement": "Km", "setting": "[6]", "value": "9 ± 1", "unit": "µM"}, {"measurement": "kcat", "setting": "[6]", "value": "5.7 ± 0.1", "unit": "s⁻¹"}, {"measurement": "kcat/Km", "setting": "[6]", "value": "630000 ± 40000", "unit": "M⁻¹ s⁻¹"}, {"measurement": "Km", "setting": "[7]", "value": "6 ± 1", "unit": "µM"}, {"measurement": "kcat", "setting": "[7]", "value": "0.66 ± 0.02", "unit": "s⁻¹"}, {"measurement": "kcat/Km", "setting": "[7]", "value": "110000 ± 20000", "unit": "M⁻¹ s⁻¹"}]}]}
